The test deals with prostate-specific membrane antigen (PSMA) (human) (UniProt Q04609). Nature of the test: in vivo near-infrared optical imaging of mouse liver, 72 h after Ad-Track-PSMA or Ad-Track-Luciferase, 48 h after 15 or 30 ug J591-IR800.

In patent US20200347464A1 one finds signal-to-noise ratio (PSMA adenovirus relative to control adenovirus, liver) data, which are given here for 1 substance.

Chain of prostate-specific membrane antigen (PSMA) (human) (Q04609 whole entry): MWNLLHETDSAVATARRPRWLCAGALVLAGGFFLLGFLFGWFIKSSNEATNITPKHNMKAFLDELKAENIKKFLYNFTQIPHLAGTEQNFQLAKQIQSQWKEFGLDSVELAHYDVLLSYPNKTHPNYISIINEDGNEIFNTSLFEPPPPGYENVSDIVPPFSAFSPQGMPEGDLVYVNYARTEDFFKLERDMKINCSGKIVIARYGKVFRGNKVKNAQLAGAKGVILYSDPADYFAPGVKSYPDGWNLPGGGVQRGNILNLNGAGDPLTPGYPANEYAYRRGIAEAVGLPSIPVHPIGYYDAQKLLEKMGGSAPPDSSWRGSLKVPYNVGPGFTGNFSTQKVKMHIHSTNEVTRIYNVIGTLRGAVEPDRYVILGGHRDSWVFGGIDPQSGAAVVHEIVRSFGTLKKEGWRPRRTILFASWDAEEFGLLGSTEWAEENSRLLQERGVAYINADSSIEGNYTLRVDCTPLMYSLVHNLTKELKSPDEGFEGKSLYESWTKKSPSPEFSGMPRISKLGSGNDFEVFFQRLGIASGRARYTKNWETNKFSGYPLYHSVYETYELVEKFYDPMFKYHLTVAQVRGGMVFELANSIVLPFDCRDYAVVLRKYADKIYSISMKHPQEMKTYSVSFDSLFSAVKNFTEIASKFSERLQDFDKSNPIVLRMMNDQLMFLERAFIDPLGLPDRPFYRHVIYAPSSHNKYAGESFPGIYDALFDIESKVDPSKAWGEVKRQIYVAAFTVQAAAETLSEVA

J591 antibody conjugated to IRDye 800CW: the signal-to-noise ratio (PSMA adenovirus relative to control adenovirus, liver) was found to be 3.
